# Reference: article PMC8187361, “Nanoscale architecture of a VAP-A-OSBP tethering complex at membrane contact sites” (Nature Communications, 2021)
# B1: N-PH-FFAT (domain or fragment, UniProt P22059 1-408, looked up)
# chain: MAATELRGVVGPGPAAIAALGGGGAGPPVVGGGGGRGDAGPGSGAASGTVVAAAAGGPGPGAGGVAAAGPAPAPPTGGSGGSGAGGSGSAREGWLFKWTNYIKGYQRRWFVLSNGLLSYYRSKAEMRHTCRGTINLATANITVEDSCNFIISNGGAQTYHLKASSEVERQRWVTALELAKAKAVKMLAESDESGDEESVSQTDKTELQNTLRTLSSKVEDLSTCNDLIAKHGTALQRSLSELESLKLPAESNEKIKQVNERATLFRITSNAMINACRDFLMLAQTHSKKWQKSLQYERDQRIRLEETLEQLAKQHNHLERAFRGATVLPANTPGNVGSGKDQCCSGKGDMSDEDDENEFFDAPEIITMPENLGHKRTGSNISGASSDISLDEQYKHQLEETKKEKRTR
# notes: OSBP residues 1-408 (N-terminal region, PH domain, central core, FFAT motif), lacking the ORD; also called 1-408-OSBP; NH-FFAT
# What was measured:
# OSBP FFAT (Homo sapiens) = OSBP FFAT (Homo sapiens) (UniProt P22059); settings: cited from earlier work
# [1] = biological target: the molecule itself; experiment: SEC; analytical gel filtration, Superdex 75, 100 ul of 10 uM protein, 25 mM Tris pH 7.5, 120 mM NaCl, 1 mM DTT; Stokes radius against MW of standards
# [2] = biological target: the molecule itself; experiment: cryo-EM structure; cryo-ET with sub-tomogram averaging of contact sites between VAP-A vesicles (LPR 70 mol/mol) and N-PH-FFAT on PI4P tubes; class with 20-25 nm membrane separation; VAP-A and N-PH-FFAT averaged separately
# [3] = biological target: the molecule itself; experiment: SDS-PAGE without heating; purified VAP-A in DDM, with reducing agents; bands at ~55 kDa and ~25 kDa, a single band when the samples were heated
# N-PH-FFAT = biological target: B1; experiment: membrane tethering seen by cryo-EM and cryo-ET; N-PH-FFAT or OSBP bound to GalCer/PI4P tubes (70 lipids/protein mol/mol), VAP-A proteoliposomes added (2 min incubation, or sequentially on the grid for 30 s), HK buffer, room temperature; settings: both partners purified
molecule,measurement,setting,value
VAP-A MSP (from UniProt Q9P0L0),Kd,OSBP FFAT (Homo sapiens),2000 nM
"OSBP CC[G324C] (C224A/C276A/G324C) (domain or fragment, UniProt P22059 199-324, looked up, AF-488, AF-568 or both dyes on the introduced cysteine C324 in the FRET experiments; unlabelled in gel filtration, Cloned via BamH1/Xma1 into pGEX-4T2; source: E. coli Bl21gold, purified (Glutathione-Sepharose, thrombin, MonoS, Superose 12)) VSQTDKTELQNTLRTLSSKVEDLSTANDLIAKHGTALQRSLSELESLKLPAESNEKIKQVNERATLFRITSNAMINAARDFLMLAQTHSKKWQKSLQYERDQRIRLEETLEQLAKQHNHLERAFRC",binding result,[1],binds
"OSBP Central Core (CC), wild type (domain or fragment, UniProt P22059 199-324, looked up, The methods describe cloning (pGEX-4T2, GST tag, thrombin cleavage) and purification only for the cysteine mutants; also called OSBP CC; source: E. coli, purified) VSQTDKTELQNTLRTLSSKVEDLSTCNDLIAKHGTALQRSLSELESLKLPAESNEKIKQVNERATLFRITSNAMINACRDFLMLAQTHSKKWQKSLQYERDQRIRLEETLEQLAKQHNHLERAFRG",stoichiometry N,[1],2
B1,stoichiometry N,[2],2
"VAP-A (natural protein, human, UniProt Q9P0L0 8-249, looked up, VAP-A, human, Q9P0L0, fragment 8-249 with its C-terminal transmembrane helix; The methods give the fragment 8-249 and the results say full-length; Both tags were removed with TEV protease before size exclusion chromatography; also called full-length VAP-A; human VAP-A; source: E. coli C41 (DE3), membranes solubilised in DDM, purified (Strep-Tactin, TEV, Superdex 200); reconstituted in egg …) MAKHEQILVLDPPTDLKFKGPFTDVVTTNLKLRNPSDRKVCFKVKTTAPRRYCVRPNSGIIDPGSTVTVSVMLQPFDYDPNEKSKHKFMVQTIFAPPNTSDMEAVWKEAKPDELMDSKLRCVFEMPNENDKLNDMEPSKAVPLNASKQDGPMPKPHSVSLNDTETRKLMEECKRLQGEMMKLSEENRHLRDEGLRLRKVAHSDKPGSTSTASFRDNVTSPLPSLLVVIAAIFIGFFLGKFIL",stoichiometry N,[3],2
same,binding result,N-PH-FFAT,binds
